Measurements from patent US9738880B2, “Lysosomal protein targeting sequence and therapeutic applications of same” (Children's Hospital Medical Center, priority 2013, dated 2017).
Positions count from the first letter of the chain named. Numbers in names are those of the source.

Tests used:
ldLIMP2 = target: T1, ldLIMP2 (Homo sapiens, UniProt Q14108); assay: Fluorescence polarization binding of DSPIIV GCase peptides to ldLIMP-2; conditions: for binding to ldLIMP2 by change in fluorescence polarization (δmP), in words: ldLIMP2 fixed at 50 nM, peptide up to 250 nM, FIG. 7A
T1 construct: Purified luminal domain LIMP-2 (1d-LIMP2) was custom made (Sino Biological Inc., PRC.); purchased Sino Biological Inc
T1 sequence (Q14108 28-433 limits assumed): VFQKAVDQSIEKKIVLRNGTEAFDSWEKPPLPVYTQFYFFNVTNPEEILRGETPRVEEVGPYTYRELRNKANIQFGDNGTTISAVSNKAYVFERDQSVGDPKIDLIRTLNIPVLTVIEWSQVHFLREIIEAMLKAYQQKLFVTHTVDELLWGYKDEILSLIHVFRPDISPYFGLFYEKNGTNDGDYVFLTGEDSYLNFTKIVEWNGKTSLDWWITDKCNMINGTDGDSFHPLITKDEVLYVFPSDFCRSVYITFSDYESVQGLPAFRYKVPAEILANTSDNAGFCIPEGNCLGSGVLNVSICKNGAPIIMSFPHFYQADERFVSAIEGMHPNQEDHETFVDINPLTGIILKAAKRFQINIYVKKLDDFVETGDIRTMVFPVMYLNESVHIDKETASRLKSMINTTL
Description: FIG. 7A-FIG. 7C: Binding and competition of fluorescent labeled or unlabeled DSPIIV (SEQ ID NO 15) GCase peptides to ldLIMP2. The change (δmP) in fluorescence polarization is plotted on the ordinate and the increasing concentrations of the various peptides are on the abscissa. FIG. 7A depicts saturation kinetics under conditions in which the concentration of ldLIMP2 (50 nM) was fixed. […] FIG. 7B depicts a similar study using unlabeled peptides as competitors. […] Each of the unlabeled peptides “competed” with the labeled peptides in the expected ratios. FIG. 7C depicts a competition study in which labeled (WT*) and unlabeled (WT) peptides were used in complementary competition studies.
FIG. 9: Effect pH on binding WT and alanine substituted DSPIIV (SEQ ID NO 15) peptides to ldLIMP2. […] In comparison, incremental decreases were evident in ldLIMP2 binding at pH=6.8, the approximate pH of the ER/cis-Golgi, as follows: the triple mutant (ASPAAV) having the lowest binding (<10% of WT), the DSPAIV (SEQ ID NO 17) (I402A) and DSPIAV (SEQ ID NO 18) (I403A) mutants being intermediate (˜40-50% of WT), and ASPIIV (SEQ ID NO 16) (D399A) having the least change (˜50-60% of WT), relative to WT.
FIG. 12: Stoichiometry between ldLIMP2 and DSPIIV (SEQ ID NO 15). The peptide concentration giving 50% of maximal binding to ldLIMP2 (ordinate) and the concentration of ldLIMP2 (abscissa) have a 1:1 ratio.
Fluorescence Polarization: The DSPIIV (SEQ ID NO 15) and its mutants, and DDQRLLL (SEQ ID NO 14) peptides (FITC labeled or non-labeled) were synthesized (American Peptide Co., Vista, Calif.). Lyophilized peptides were solubilized in acetonitrile and then were diluted at least 10,000-fold into the reactions for fluorescence polarization assessments. The reactions were done at least in duplicate at various peptide and LIMP-2 concentrations (SpectraMax M5, Molecular Device). Fluorescence polarization data were collected and analyzed with SoftMax Pro 5.0 software. Reaction mixtures contained 100 mM phosphate, pH 6.8 and 1 mM DTT.

[1] = test system: Gba1 null/null mouse fibroblasts; assay: Immunofluorescence co-localization of expressed GCase constructs (lysosome vs ER/Golgi); format: cell-based; conditions: for Pearson Indices for co-localization to the lysosome, in words: DSPIIV variants, FIG. 10B; for co-localization to / retention in the ER/Golgi, in words: calnexin or calreticulin; for localization of GCase DSPIIV variants to the lysosome (Lamp1 / LIMP-2 co-localization), in words: transient transfection, FIG. 10A
Excerpt: Immunofluorescence studies (IF): Mouse Gba1 null/null were used for the host cells for all transfection experiments. pCMV-AC-GFP Mammalian cell expression vector was used for expression of various GCases that included the TKD region (amino acids 407, 408 and 409) or the DSPIIV (SEQ ID NO 15) region (amino acids 399-404). Direct-labeled first antibodies were applied for IF detection; including anti-human GCase, -Calreticulin, -calnexin, -LIMP2, and -Lamp1. Lysotracker and ER tracker (Invitrogen) were also used as indicated. Analyses were done with a Zeiss AxioVert 200M with ApoTome. Co-localization analyses to obtain Pearson Indices were conducted using a module in the Axiovision 4.8 software.
Initial studies to localize the targeting peptide were conducted with GCase-GFP fusion constructs that had COOH-terminal deletions of GCase (FIG. 1). The constructs are designated as GCase-XX or XXX where the Xs represent the number of GCase amino acids deleted from the COOH-terminus. These constructs were transfected into and expressed in Gba1 null/null mouse fibroblasts using the CMV promoter (pCMV-AC-GFP or YFP) Immunofluorescence analyses using anti-human GCase IgG (green) and Lysotracker (Red) were used for colocalization of GCase to the lysosome (Red) or GCase (green) and Calreticulin or Calnexin (Red) for colocalization to the ER or Golgi (FIG. 2). […] Since LIMP-2 is the receptor for targeting of GCase to the lysosome, our working hypothesis was that the peptide sequence for binding of GCase to LIMP-2 was located within amino acids 347-422.

Gba1−/− cells = assay: Proportion of GCase protein in cells and media; format: cell-based, mouse; conditions: for Total GCase: cellular + media; for Total GCase / Cellular GCase / Media GCase: mean ± SD, n = 3; for Cellular GCase / Media GCase: total ng
Excerpt: (§1) FIG. 11A-FIG. 11C: Secretion and retention of GCase with alanine variants in the TDK (FIG. 11A) or DSPIIV (SEQ ID NO 15) (FIG. 11B and FIG. 11C) sequences. FIG. 11A depicts activities in the media of Gba1−/− fibroblasts following transient transfections of each of the specified alanine substituted GCases in the TDK region. […] FIG. 11B depicts in the Left Panel: Activities in the media following transient transfections of various DSPIIV (SEQ ID NO 15) alanine substituted GCases and the % of GCase secreted. The latter was calculated as {ng GCase (in media)/[ng GCase (in media)+ng (GCase in lysates)]}×100 (also see Table 2). […] The transfections alone (Null+lipo) had no effect. […] FIG. 11C deicts in cellular lysate GCase activities from the various alanine substituted GCases in the DSPIIV (SEQ ID NO 15) sequence as indicated. […] The doubly alanine substituted GCase had little intracellular activity, i.e., nearly all the GCase was secreted into the media.

Gba1−/− fibroblasts = assay: GCase activity in media and cell lysates after transient transfection (secretion and retention); format: cell-based, mouse; conditions: cell lysates; FIG. 11C
Excerpt: as §1
Enzyme Assays: Cell pellets were homogenized in 0.25% Na-taurocholate and 0.25% Triton X-100. GCase activities were determined fluorometrically with 4 mM 4MU-Glc in 0.2M/0.1M citric-phosphate, pH 5.6 (18, 54)

DSPAIV
binding to ldLIMP2 by change in fluorescence polarization (δmP), in words (ldLIMP2): did not show saturation up to 250 nM

ASPAAV [triple alanine mutant of the DSPIIV peptide]
binding to ldLIMP2 by change in fluorescence polarization (δmP), in words (ldLIMP2): background changes
ldLIMP2 binding relative to WT peptide (ldLIMP2; pH 6.8, FIG. 9): < 10 % of WT

DSPIAV
binding to ldLIMP2 by change in fluorescence polarization (δmP), in words (ldLIMP2): did not show saturation up to 250 nM

ASPIIV
binding to ldLIMP2 by change in fluorescence polarization (δmP), in words (ldLIMP2): little binding
decrease of binding to ldLIMP-2 (ldLIMP2; pH 6.8, FIG. 9): 30-40%
ldLIMP2 binding relative to WT peptide (ldLIMP2; pH 6.8, FIG. 9): 50-60 % of WT

B1: D399A: human GCase variant with D399A (ASPIIV sequence) (protein, UniProt P04062 40-536, looked up, variant D399A)
Lysosomal acid …: ARPCIPKSFGYSSVVCVCNATYCDSFDPPTFPALGTFSRYESTRSGRRMELSMGPIQANHTGTGLLLTLQPEQKFQKVKGFGGAMTDAAALNILALSPPAQNLLLKSYFSEEGIGYNIIRVPMASCDFSIRTYTYADTPDDFQLHNFSLPEEDTKLKIPLIHRALQLAQRPVSLLASPWTSPTWLKTNGAVNGKGSLKGQPGDIYHQTWARYFVKFLDAYAEHKLQFWAVTAENEPSAGLLSGYPFQCLGFTPEHQRDFIARDLGPTLANSTHHNVRLLMLDDQRLLLPHWAKVVLTDPEAAKYVHGIAVHWYLDFLAPAKATLGETHRLFPNTMLFASEACVGSKFWEQSVRLGSWDRGMQYSHSIITNLLYHVVGWTDWNLALNPEGGPNWVRNFVASPIIVDITKDTFYKQPMFYHLGHFSKFIPEGSQRVGLVASQKNDLDAVALMHPDGSAVVVVLNRSSKDVPLTIKDPAVGFLETISPGYSIHTYLWRRQ
Pearson Indices for co-localization to the lysosome, in words [1]: little co-localization to the lysosome
co-localization to / retention in the ER/Golgi, in words [1]: significant retention in the ER/Golgi
localization of GCase DSPIIV variants to the lysosome (Lamp1 / LIMP-2 co-localization), in words [1]: Essentially identical results
Total GCase (Gba1−/− cells): 50 ± 4 ng
Cellular GCase (Gba1−/− cells): 32 ± 4 ng
Media GCase (Gba1−/− cells): 18 ± 2 ng

B2: I402A/I403A: human GCase double mutant I402A + I403A (DSPAAV sequence) (protein)
chain: B1 Lysosomal acid … with A399D, I402A, I403A
Pearson Indices for co-localization to the lysosome, in words [1]: little co-localization to the lysosome
co-localization to / retention in the ER/Golgi, in words [1]: significant retention in the ER/Golgi
localization of GCase DSPIIV variants to the lysosome (Lamp1 / LIMP-2 co-localization), in words [1]: Essentially identical results
GCase activity in cell lysates relative to WT (Gba1−/− fibroblasts): < 5 % of WT
Total GCase (Gba1−/− cells): 24 ± 4 ng
Cellular GCase (Gba1−/− cells): 4 ± 1 ng
Media GCase (Gba1−/− cells): 20 ± 3 ng

B3: Mouse WT: mouse wild type GCase (protein, UniProt P17439 20-515, looked up)
Lysosomal acid …: AQPCIPKSFGYSSVVCVCNASYCDSLDPVTLPALGTFSRYESTRRGRRMELSVGAIQANRTGTGLLLTLQPEKKFQKVKGFGGAMTDATALNILALSPPTQKLLLRSYFSTNGIEYNIIRVPMASCDFSIRVYTYADTPNDFQLSNFSLPEEDTKLKIPLIHQALKMSSRPISLFASPWTSPTWLKTNGRVNGKGSLKGQPGDIFHQTWANYFVKFLDAYAKYGLRFWAVTAENEPTAGLFTGYPFQCLGFTPEHQRDFISRDLGPALANSSHDVKLLMLDDQRLLLPRWAEVVLSDPEAAKYVHGIAVHWYMDFLAPAKATLGETHRLFPNTMLFASEACVGSKFWEQSVRLGSWDRGMQYSHSIITNLLYHVTGWTDWNLALNPEGGPNWVRNFVDSPIIVDIPKDAFYKQPMFYHLGHFSKFIPEGSQRVALVASESTDLETVALLRPDGSAVVVVLNRSSEDVPLTISDPDLGFLETVSPGYSIHTYLWRRQ
Total GCase (Gba1−/− cells): 64 ± 7 ng
% Secreted (Gba1−/− cells; ng GCase in media / (ng in media + ng in lysates) × 100): 0%
Cellular GCase (Gba1−/− cells): 64 ± 7 ng
Media GCase (Gba1−/− cells): 0 ng
